Results from article PMC12249575.

Target: EcSofic H194A mutant (Sofic from Escherichia coli H397) (Escherichia coli H397)
Assay: AUC; sedimentation velocity, 50,000 rpm, 12 °C; samples 0.8 mg/mL in 20 mM Tris-HCl pH 7.5, 100 mM NaCl, 1 mM DTT; SEDFIT

EcSofic H194A mutant (Sofic from Escherichia coli H397) (enzyme)
stoichiometry N: 2
